According to US20170002055A1, “Novel peptides and combination of peptides for use in immunotherapy against ovarian cancer and other cancers” (immatics biotechnologies GmbH, priority 2015, published 2017):

target: HLA-A*02:01 (Homo sapiens, UniProt P04439, D140Y/D185E/D98H/E176V/E277Q/G131W/G231S/I119V/I121R/I166T/I218V/L300P/L318F/N151K/N90K/P208A/P217A/Q86G/Q94H/R138H/R169H/T345S); experiment: MHC binding assay (UV-ligand exchange, β2m ELISA, peptide exchange yield); settings: MHC class I binding score; binding to HLA-A*02:01 ranged by peptide exchange yield (UV-ligand exchange, β2m ELISA)
Method in brief: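 Peptide–HLA-A*02:01 complexes were formed by UV-mediated exchange of a UV-cleavable ligand for the test peptide. Exchange yield was measured by capturing complexes on streptavidin, detecting with HRP anti-β2m antibody (1 h, 37°C) and reading TMB absorbance at 450 nm.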

Row | Substance | Peptide exchange
1 | 217 (ALIHPVSTV; listed as Homo sapiens) [compound 217] | “++” (≧20% = ++)
2 | 163 (ALDEMGDLLQL; listed as Homo sapiens) [compound 163] | “+++” (≧50 = +++)
3 | 575 (YLISQVEGHQV; listed as Homo sapiens) [compound 575] | “+++” (≧50 = +++)
4 | 200 (LLFGSVQEV; listed as Homo sapiens) [compound 200] | “+++” (≧50 = +++)
5 | 109 (IILSILEQA; listed as Homo sapiens) [compound 109] | “++++” (≧75% = ++++)
6 | 135 (ALSEVDFQL; listed as Homo sapiens) [compound 135] | “+++” (≧50 = +++)
7 | 309 (GLFDGVPTTA; listed as Homo sapiens) [compound 309] | “+++” (≧50 = +++)
8 | 580 (LLMENAERV; listed as Homo sapiens) [compound 580] | “++” (≧20% = ++)
9 | 574 (YLLQEPPRTV; listed as Homo sapiens) [compound 574] | “++” (≧20% = ++)
10 | 440 (ALADGVTMQV; listed as Homo sapiens) [compound 440] | “++” (≧20% = ++)
11 | 539 (ALFDAQAQV; listed as Homo sapiens) [compound 539] | “+++” (≧50 = +++)
12 | 308 (SQYSGQLHEV; listed as Homo sapiens) [compound 308] | “+++” (≧50 = +++)
13 | 341 (SQIALNEKLVNL; listed as Homo sapiens) [compound 341] | “+++” (≧50 = +++)
14 | 9 (GAAKDLPGV; listed as Homo sapiens) [compound 9] | “++” (≧20% = ++)
15 | 475 (LLLNEEALAQI; listed as Homo sapiens) [compound 475] | “+++” (≧50 = +++)
16 | 361 (ALYELEGTTV; listed as Homo sapiens) [compound 361] | “+++” (≧50 = +++)
17 | 333 (FLPDANSSV; listed as Homo sapiens) [compound 333] | “++” (≧20% = ++)
18 | 116 (YHIDEEVGF; listed as Homo sapiens) [compound 116] | “+” (≧10% = +)
19 | 276 (ALFTFSPLTV; listed as Homo sapiens) [compound 276] | “+++” (≧50 = +++)
20 | 587 (VMNDRLYAI; listed as Homo sapiens) [compound 587] | “+++” (≧50 = +++)
21 | 210 (LLLNAVLTV; listed as Homo sapiens) [compound 210] | “++” (≧20% = ++)

Row | Substance | Peptide exchange
22 | 279 (ALWGGTQPLL; listed as Homo sapiens) [compound 279] | “++” (≧20% = ++)
23 | 130 (FLWNGEDSALL; listed as Homo sapiens) [compound 130] | “+++” (≧50 = +++)
24 | 527 (FLLEPGNLEV; listed as Homo sapiens) [compound 527] | “++++” (≧75% = ++++)
25 | 544 (LLWDVPAPSL; listed as Homo sapiens) [compound 544] | “+++” (≧50 = +++)
26 | 66 (FLDENIGGVAV; listed as Homo sapiens) [compound 66] | “+++” (≧50 = +++)
27 | 95 (SVIPQIQKV; listed as Homo sapiens) [compound 95] | “+++” (≧50 = +++)
28 | 179 (KVLNELYTV; listed as Homo sapiens) [compound 179] | “+++” (≧50 = +++)
29 | 22 (IMEENPGIFAV; listed as Homo sapiens) [compound 22] | “+++” (≧50 = +++)
30 | 412 (YLDDLNEGVYI; listed as Homo sapiens) [compound 412] | “++” (≧20% = ++)
31 | 274 (SLLFSLFEA; listed as Homo sapiens) [compound 274] | “++” (≧20% = ++)
32 | 187 (RQISIRGIVGV; listed as Homo sapiens) [compound 187] | “+++” (≧50 = +++)
33 | 340 (ALLSMTFPL; listed as Homo sapiens) [compound 340] | “++++” (≧75% = ++++)
34 | 502 (RLLAQVPGL; listed as Homo sapiens) [compound 502] | “+++” (≧50 = +++)
35 | 138 (YQYPRAILSV; listed as Homo sapiens) [compound 138] | “+++” (≧50 = +++)
36 | 110 (FLSQVDFEL; listed as Homo sapiens) [compound 110] | “+++” (≧50 = +++)
37 | 477 (ALLPASGQIAL; listed as Homo sapiens) [compound 477] | “+++” (≧50 = +++)
38 | 547 (TLDITPHTV; listed as Homo sapiens) [compound 547] | “+++” (≧50 = +++)
39 | 1 (SLMEPPAVLLL; listed as Homo sapiens) [compound 1] | “+++” (≧50 = +++)
40 | 617 (ALMYESEKVGV; listed as Homo sapiens) [compound 617] | “+++” (≧50 = +++)
41 | 99 (ALVSKGLATV; listed as Homo sapiens) [compound 99] | “++” (≧20% = ++)
42 | 164 (ALLPQPKNLTV; listed as Homo sapiens) [compound 164] | “+++” (≧50 = +++)

Second part, the substance after the results:

Row | Peptide exchange | Substance
43 | “+++” (≧50 = +++) | 388 (SLTIDGIRYV; listed as Homo sapiens) [compound 388]
44 | “++++” (≧75% = ++++) | 553 (SLLNQDLHWSL; listed as Homo sapiens) [compound 553]
45 | “++++” (≧75% = ++++) | 235 (YLNDLHEVLL; listed as Homo sapiens) [compound 235]
46 | “++++” (≧75% = ++++) | 177 (YLLPEEYTSTL; listed as Homo sapiens) [compound 177]
47 | “+++” (≧50 = +++) | 436 (HLAEVSAEV; listed as Homo sapiens) [compound 436]
48 | “++” (≧20% = ++) | 374 (FLLQQHLISA; listed as Homo sapiens) [compound 374]
49 | “+++” (≧50 = +++) | 205 (SLYPGTETMGL; listed as Homo sapiens) [compound 205]
50 | “+++” (≧50 = +++) | 573 (ILVANAIVGV; listed as Homo sapiens) [compound 573]
51 | “+++” (≧50 = +++) | 107 (FLQPVDDTQHL; listed as Homo sapiens) [compound 107]
52 | “+++” (≧50 = +++) | 586 (KLKPGDLVGV; listed as Homo sapiens) [compound 586]
53 | “+++” (≧50 = +++) | 194 (ALPLFVITV; listed as Homo sapiens) [compound 194]
54 | “+++” (≧50 = +++) | 356 (KLLGKLPEL; listed as Homo sapiens) [compound 356]
55 | “++” (≧20% = ++) | 18 (YLVAKLVEV; listed as Homo sapiens) [compound 18]
56 | “+++” (≧50 = +++) | 612 (YLYNEGLSV; listed as Homo sapiens) [compound 612]
57 | “+++” (≧50 = +++) | 142 (FLFATPVFI; listed as Homo sapiens) [compound 142]
58 | “+++” (≧50 = +++) | 297 (VLADIELAQA; listed as Homo sapiens) [compound 297]
59 | “++” (≧20% = ++) | 385 (SLLEQGLVEA; listed as Homo sapiens) [compound 385]
60 | “+++” (≧50 = +++) | 214 (FLLDLDPLLL; listed as Homo sapiens) [compound 214]

Row | Peptide exchange | Substance
61 | “++” (≧20% = ++) | 185 (FLIDDKGYTL; listed as Homo sapiens) [compound 185]
62 | “++++” (≧75% = ++++) | 576 (ILLNNSGQIKL; listed as Homo sapiens) [compound 576]
63 | “++” (≧20% = ++) | 128 (YLFDDPLSAV; listed as Homo sapiens) [compound 128]
64 | “++” (≧20% = ++) | 548 (ALWENPESGEL; listed as Homo sapiens) [compound 548]
65 | “+++” (≧50 = +++) | 90 (TLLQIIETV; listed as Homo sapiens) [compound 90]
66 | “+++” (≧50 = +++) | 473 (AMATESILHFA; listed as Homo sapiens) [compound 473]
67 | “+++” (≧50 = +++) | 264 (SLQEQLHSV; listed as Homo sapiens) [compound 264]
68 | “++” (≧20% = ++) | 431 (SLVNVVPKL; listed as Homo sapiens) [compound 431]
69 | “+++” (≧50 = +++) | 241 (SLVEVNPAYSV; listed as Homo sapiens) [compound 241]
70 | “++” (≧20% = ++) | 377 (FLLDSSASV; listed as Homo sapiens) [compound 377]
71 | “++” (≧20% = ++) | 451 (LLLLDTVTMQV; listed as Homo sapiens) [compound 451]
72 | “+++” (≧50 = +++) | 342 (HIYDKVMTV; listed as Homo sapiens) [compound 342]
73 | “+++” (≧50 = +++) | 76 (ILIDSIYKV; listed as Homo sapiens) [compound 76]
74 | “+++” (≧50 = +++) | 97 (SLINGSFLV; listed as Homo sapiens) [compound 97]
75 | “+++” (≧50 = +++) | 613 (RLLPPGAVVAV; listed as Homo sapiens) [compound 613]
76 | “++” (≧20% = ++) | 140 (YMDAPKAAL; listed as Homo sapiens) [compound 140]
77 | “++” (≧20% = ++) | 516 (AVGPASILKEV; listed as Homo sapiens) [compound 516]
78 | “++++” (≧75% = ++++) | 62 (VLLDVSAGQLLM; listed as Homo sapiens) [compound 62]
